From patent US6685932
Where a chain is given by its changes, count along the chain named. Each block holds one binder with its values, some of them ahead of it.

Assays:
[1] = biological target: T1, extracellular domain of the IL-4Rα (IL-4 binding protein), P24394; assay: biosensor (BIA2000), IL4BP biotinylated at Cys-206 on a streptavidin matrix, 25 C
[2] = biological target: T1, extracellular domain of the IL-4Rα …; assay: biosensor (BIA2000), IL4BP on a streptavidin matrix, room temperature
[3] = biological target: T1, extracellular domain of the IL-4Rα …; assay: biosensor (BIA2000), compared with MAR-IL4

T1 sequence (P24394 26-232 limits assumed): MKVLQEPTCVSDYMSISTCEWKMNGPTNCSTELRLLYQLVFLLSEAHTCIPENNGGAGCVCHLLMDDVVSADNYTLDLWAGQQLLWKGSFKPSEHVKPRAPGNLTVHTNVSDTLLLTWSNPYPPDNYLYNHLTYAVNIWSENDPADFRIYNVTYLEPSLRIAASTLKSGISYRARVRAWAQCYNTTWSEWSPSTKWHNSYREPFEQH

Kd [1]: 106 µM
Kd [2]: 100 µM
B3: Model 2c (peptide)
peptide: RMKQLEKKVERLLKRNYRLEWEVARLKKLVG
modifications: not checked

Kd [1]: 193 µM
B4: Model 2b (peptide)
peptide: B3 peptide with W21N, A24I
modifications: not checked

Further lines, the binder ahead of its results:

B1: Model 2a (peptide)
peptide: B3 peptide with W21N
modifications: not checked
Kd [1]: 2160 µM
Kd [2]: 2000 µM

B2: MAR-IL4 (peptide)
peptide: B3 peptide with A24I
modifications: not checked
Kd [1]: 26 µM

B5: 26CMAR-IL4 (peptide)
peptide: B3 peptide with A24I, L26C
modifications: not checked
Kd [1]: 5 to 10 µM
fold increase in binding affinity against MAR-IL4 [3]: 5 fold

B6: 12CMAR-IL4 (peptide)
peptide: B3 peptide with L12C, A24I
modifications: not checked
Kd [1]: 5 µM
fold increase in binding affinity against MAR-IL4 [3]: 5 fold

B7: 12CNMAR-IL4 (peptide)
peptide: RMKQLEKKVERCLKRLYRNEWEVIRLKKLVG
modifications: not checked
Kd [1]: 5 µM
